Assays:
[1] = target: CG55069 (Ten-M3), endogenous on human tumour, lymphoma and leukemia cell lines (human) (UniProt Q9P273); experiment: flow cytometry on MV4-11 cells, negative control antibody
[2] = target: CG55069 (Ten-M3), endogenous on human tumour, lymphoma and leukemia cell lines (human) (UniProt Q9P273); experiment: flow cytometry on MOLT-4 cells, negative control antibody
[3] = target: CG55069 (Ten-M3), endogenous on human tumour, lymphoma and leukemia cell lines (human) (UniProt Q9P273); experiment: flow cytometry on SUP-M2 cells, negative control antibody
[4] = target: CG55069 (Ten-M3), endogenous on human tumour, lymphoma and leukemia cell lines (human) (UniProt Q9P273); experiment: flow cytometry on SR cells, negative control antibody
[5] = target: CG55069 (Ten-M3), endogenous on human tumour, lymphoma and leukemia cell lines (human) (UniProt Q9P273); experiment: flow cytometry on CCRF-CEM cells, negative control antibody
[6] = target: CG55069 (Ten-M3), endogenous on human tumour, lymphoma and leukemia cell lines (human) (UniProt Q9P273); experiment: flow cytometry on SU-DHL-4 cells, negative control antibody
[7] = target: CG55069 (Ten-M3), endogenous on human tumour, lymphoma and leukemia cell lines (human) (UniProt Q9P273); experiment: flow cytometry on DEL cells, negative control antibody
[8] = target: CG55069 (Ten-M3), endogenous on human tumour, lymphoma and leukemia cell lines (human) (UniProt Q9P273); experiment: flow cytometry on Karpas 299 cells, negative control antibody

Sequence of UniProt Q9P273 (Q9P273 other isoform, or with tags, fused parts or gaps): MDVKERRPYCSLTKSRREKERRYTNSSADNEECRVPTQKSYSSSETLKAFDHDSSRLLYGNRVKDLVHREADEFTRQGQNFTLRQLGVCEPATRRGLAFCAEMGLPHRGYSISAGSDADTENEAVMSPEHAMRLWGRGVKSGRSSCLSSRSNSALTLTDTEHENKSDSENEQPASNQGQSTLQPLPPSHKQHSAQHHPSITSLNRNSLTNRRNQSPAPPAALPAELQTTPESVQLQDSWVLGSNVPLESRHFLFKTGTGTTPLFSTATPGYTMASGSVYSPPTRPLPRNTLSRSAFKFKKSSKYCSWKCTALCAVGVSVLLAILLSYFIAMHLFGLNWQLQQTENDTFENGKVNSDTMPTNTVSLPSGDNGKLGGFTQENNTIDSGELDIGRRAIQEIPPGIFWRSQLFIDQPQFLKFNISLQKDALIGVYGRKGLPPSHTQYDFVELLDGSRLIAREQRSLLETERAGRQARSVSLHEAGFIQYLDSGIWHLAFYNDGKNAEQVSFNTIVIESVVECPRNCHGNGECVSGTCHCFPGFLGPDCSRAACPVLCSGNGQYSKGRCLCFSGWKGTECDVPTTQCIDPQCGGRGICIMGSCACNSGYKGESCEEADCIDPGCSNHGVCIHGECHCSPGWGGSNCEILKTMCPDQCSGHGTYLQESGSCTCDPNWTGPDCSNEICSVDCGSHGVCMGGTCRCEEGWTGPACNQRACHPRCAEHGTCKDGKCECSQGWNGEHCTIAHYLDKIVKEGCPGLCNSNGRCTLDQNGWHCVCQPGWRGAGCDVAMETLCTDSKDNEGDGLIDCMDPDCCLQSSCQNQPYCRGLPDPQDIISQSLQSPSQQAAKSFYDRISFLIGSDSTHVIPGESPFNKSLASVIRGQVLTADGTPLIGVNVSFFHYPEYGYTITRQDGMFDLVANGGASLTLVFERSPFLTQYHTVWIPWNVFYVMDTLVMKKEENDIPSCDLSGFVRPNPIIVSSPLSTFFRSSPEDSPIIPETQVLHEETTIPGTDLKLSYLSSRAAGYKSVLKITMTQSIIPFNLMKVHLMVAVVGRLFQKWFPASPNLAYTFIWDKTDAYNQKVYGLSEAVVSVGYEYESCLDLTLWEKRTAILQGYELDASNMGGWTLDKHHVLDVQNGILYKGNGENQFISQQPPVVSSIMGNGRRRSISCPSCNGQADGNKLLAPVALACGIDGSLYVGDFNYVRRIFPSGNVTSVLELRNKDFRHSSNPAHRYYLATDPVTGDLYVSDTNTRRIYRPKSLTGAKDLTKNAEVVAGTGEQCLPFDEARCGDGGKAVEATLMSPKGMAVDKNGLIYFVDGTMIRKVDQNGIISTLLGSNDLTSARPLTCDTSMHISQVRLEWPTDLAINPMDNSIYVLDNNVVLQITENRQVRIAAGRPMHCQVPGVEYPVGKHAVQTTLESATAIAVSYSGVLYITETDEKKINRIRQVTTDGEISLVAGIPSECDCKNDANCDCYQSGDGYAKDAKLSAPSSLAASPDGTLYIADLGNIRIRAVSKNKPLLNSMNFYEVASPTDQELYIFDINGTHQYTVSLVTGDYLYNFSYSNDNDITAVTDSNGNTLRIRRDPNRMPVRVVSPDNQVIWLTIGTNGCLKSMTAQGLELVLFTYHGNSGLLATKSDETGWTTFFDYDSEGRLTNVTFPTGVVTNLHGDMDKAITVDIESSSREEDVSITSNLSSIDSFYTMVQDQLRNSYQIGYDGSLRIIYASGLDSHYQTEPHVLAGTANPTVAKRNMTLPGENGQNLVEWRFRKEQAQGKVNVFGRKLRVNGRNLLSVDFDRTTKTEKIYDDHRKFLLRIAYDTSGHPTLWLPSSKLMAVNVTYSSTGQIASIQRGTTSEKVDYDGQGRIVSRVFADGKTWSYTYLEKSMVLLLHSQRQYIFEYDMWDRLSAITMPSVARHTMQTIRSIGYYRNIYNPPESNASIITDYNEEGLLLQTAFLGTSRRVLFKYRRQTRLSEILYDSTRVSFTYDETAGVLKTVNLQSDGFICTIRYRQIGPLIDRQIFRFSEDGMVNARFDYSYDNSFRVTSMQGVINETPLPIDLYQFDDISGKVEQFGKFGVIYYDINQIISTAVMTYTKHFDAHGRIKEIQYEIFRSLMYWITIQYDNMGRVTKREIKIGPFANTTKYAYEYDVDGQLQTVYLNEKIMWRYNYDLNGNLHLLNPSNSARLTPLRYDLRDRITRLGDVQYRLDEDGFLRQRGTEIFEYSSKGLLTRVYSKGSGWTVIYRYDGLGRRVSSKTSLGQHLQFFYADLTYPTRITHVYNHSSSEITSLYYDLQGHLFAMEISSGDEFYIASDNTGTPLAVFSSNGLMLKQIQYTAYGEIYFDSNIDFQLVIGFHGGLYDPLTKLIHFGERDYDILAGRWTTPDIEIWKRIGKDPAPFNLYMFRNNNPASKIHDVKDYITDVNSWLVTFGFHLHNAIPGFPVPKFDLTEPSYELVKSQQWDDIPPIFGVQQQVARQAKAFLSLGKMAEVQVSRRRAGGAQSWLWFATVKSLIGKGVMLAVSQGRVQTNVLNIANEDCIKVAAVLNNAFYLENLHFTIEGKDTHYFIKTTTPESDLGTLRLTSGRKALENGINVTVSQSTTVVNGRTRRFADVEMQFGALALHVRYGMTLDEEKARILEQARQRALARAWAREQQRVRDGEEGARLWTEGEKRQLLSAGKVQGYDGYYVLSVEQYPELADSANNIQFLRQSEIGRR

Geo Mean Ratio [1]: 90.7
Geo Mean Ratio [2]: 4.13
Geo Mean Ratio [3]: 6.13
Geo Mean Ratio [4]: 4.29
Geo Mean Ratio [5]: 4.22
Geo Mean Ratio [6]: 2.38
Geo Mean Ratio [7]: 7.41
Geo Mean Ratio [8]: 5.08
Substance: Rabbit negative (control antibody)

Source: patent US20050244868A1
